Reference: patent publication US20170252417A1 (MIT, published 2017)

B1: M11.1.2 (designed binder)
chain: ATVKYTYRGEEKRVDISKIKWVNRWGQHLAFKYDKGGGAAGYGWVSEKDAPKELLQMLEKR
notes: Isolated from a yeast surface display library built on the rcSso7d scaffold; In the vaccines it was fused at its C-terminus to GGGS-His tag-GGGS-E7 long
B2: M18.2.5 (designed binder)
chain: ATVKFTYRGEEKQVDISKIKWVVRLGQVIMFKYDEGGGASGYGRVSEKDAPKELLQMLEK
notes: as for B1

Molecular target: mouse serum albumin (MSA) (mouse, UniProt P07724 25-608)
Experiment: yeast surface display library on rcSso7d scaffold, selection for MSA binders

Row | Binder | binding result
1 | B1 | binds
2 | B2 | binds
